Experimental data reported in article PMC7822592, “The half-life of the bone-derived hormone osteocalcin is regulated through O-glycosylation in mice, but not in humans” (eLife, 2020).
No end group written: not given here. O‑glycan = not defined here

Columns and labels:
INS-1 832/3 cells [1] = assay: OCN stability in INS-1 832/3 cell culture media; type: in vitro ADME, rat; conditions: 8 hours at 4°C without cells, ELISA
INS-1 832/3 cells [2] = assay: OCN stability in INS-1 832/3 cell culture media; type: in vitro ADME, rat; conditions: 8 hours with INS-1 cells at 37°C, ELISA
Description: The INS-1 832/3 rat insulinoma cell line (Millipore-Sigma) was cultured in RPMI-1640 with 11.1 mM D-glucose, supplemented with 2 mM L-glutamine, 1 mM sodium pyruvate, 10 mM HEPES, 0.05 mM β-mercaptoethanol and 10% FBS ([Hohmeier et al., 2000]). On day 1, cells were plated at 3 × 10^5 cells per well in 12-well plates and on day 5, cells were washed with PBS and incubated with culture media containing 5 mM D-glucose. Twenty-four hours later, cells were washed with PBS and incubated for 4 hr in culture media containing 1% FBS, 5 mM D-glucose and 0.1% BSA. OCN was added for 8 hr before supernatants and cells were harvested. ucOCN and O-gly ucOCN concentration were measured in supernatants by ELISA and cells were lyzed and RNA extracted as described in the material and methods section. Gene expression was analyzed using rat specific primers for Ins1 and Gapdh.

Row | Substance | OCN in stimulation media (INS-1 832/3 cells [1]; replicate 1) | OCN in stimulation media (INS-1 832/3 cells [1]; replicate 2) | OCN in stimulation media (INS-1 832/3 cells [1]; replicate 3) | OCN in stimulation media (INS-1 832/3 cells [2]; replicate 1) | OCN in stimulation media (INS-1 832/3 cells [2]; replicate 2) | OCN in stimulation media (INS-1 832/3 cells [2]; replicate 3)
1 | O-gly ucOCN: O-glycosylated uncarboxylated mouse osteocalcin produced and purified from HEK293 as Fc fusion, released by thrombin (YLGASVPS(O‑glycan)PDPLEPTREQCELNPACDELSDQYGLKTAYKRIYGITI; ends and bridges not checked; also: O-glycosylated (HexNAc, Hex, NANA); UniProt P86546 50-95, looked up) | 0.15 ng/mL | 0.15 ng/mL | 0.14 ng/mL | 0.12 ng/mL | 0.13 ng/mL | 0.13 ng/mL
2 | ucOCN: Non-glycosylated uncarboxylated mouse osteocalcin produced in bacteria (YLGASVPSPDPLEPTREQCELNPACDELSDQYGLKTAYKRIYGITI; ends and bridges not checked; cysteine pairing not given here; UniProt P86546 50-95, looked up) | 0.15 ng/mL | 0.18 ng/mL | 0.17 ng/mL | 0.037 ng/mL | 0.028 ng/mL | 0.03 ng/mL
